Assay results reported in US9499823B2, “Constructs expressing chimeric receptors and use thereof for the controlled activation of defence response to pathogens in plants” (priority 2009, dated 2016).
“Also recorded” adds a separate entry of the source.

B1: EFR: Arabidopsis LRR receptor kinase Elongation Factor Tu Receptor (AT5G20480); GFP-fused control (protein)
chain: RFSNETDMQALLEFKSQVSENNKREVLASWNHSSPFCNWIGVTCGRRRERVISLNLGGFKLTGVISPSIGNLSFLRLLNLADNSFGSTIPQKVGRLFRLQYLNMSYNLLEGRIPSSLSNCSRLSTVDLSSNHLGHGVPSELGSLSKLAILDLSKNNLTGNFPASLGNLTSLQKLDFAYNQMRGEIPDEVARLTQMVFFQIALNSFSGGFPPALYNISSLESLSLADNSFSGNLRADFGYLLPNLRRLLLGTNQFTGAIPKTLANISSLERFDISSNYLSGSIPLSFGKLRNLWWLGIRNNSLGNNSSSGLEFIGAVANCTQLEYLDVGYNRLGGELPASIANLSTTLTSLFLGQNLISGTIPHDIGNLVSLQELSLETNMLSGELPVSFGKLLNLQVVDLYSNAISGEIPSYFGNMTRLQKLHLNSNSFHGRIPQSLGRCRYLLDLWMDTNRLNGTIPQEILQIPSLAYIDLSNNFLTGHFPEEVGKLELLVGLGASYNKLSGKMPQAIGGCLSMEFLFMQGNSFDGAIPDISRLVSLKNVDFSNNNLSGRIPRYLASLPSLRNLNLSMNKFEGRVPTTGVFRNATAVSVFGNTNICGGVREMQLKPCIVQASPRKRKPLSVRKKVVSGICIGIASLLLIIIVASLCWFMKRKKKNNASDGNPSDSTTLGMFHEKVSYEELHSATSRFSSTNLIGSGNFGNVFKGLLGPENKLVAVKVLNLLKHGATKSFMAECETFKGIRHRNLVKLITVCSSLDSEGNDFRALVYEFMPKGSLDMWLQLEDLERVNDHSRSLTPAEKLNIAIDVASALEYLHVHCHDPVAHCDIKPSNILLDDDLTAHVSDFGLAQLLYKYDRESFLNQFSSAGVRGTIGYAAPEYGMGGQPSIQGDVYSFGILLLEMFSGKKPTDESFAGDYNLHSYTKSILSGCTSSGGSNAIDEGLRLVLQVGIKCSEEYPRDRMRTDEAVRELISIRSKFFSSKTTITESPRDAPQSSPQEWMLNTDMHTM
B2: WEG: chimeric receptor: WAK1 ectodomain fused to the TM-iJM-kinase portion of EFR, GFP-fused (protein)
chain: QHQPGENCQNKCGNITIEYPFGISSGCYYPGNESFSITCKEDRPHVLSDIEVANFNHSGQLQVLLNRSSTCYDEQGKKTEEDSSFTLENLSLSANNKLTAVGCNALSLLDTFGMQNYSTACLSLCDSPPEADGECNGRGCCRVDVSAPLDSYTFETTSGRIKHMTSFHDFSPCTYAFLVEDDKFNFSSTEDLLNLRNVMRFPVLLDWSVGNQTCEQVGSTSICGGNSTCLDSTPRNGYICRCNEGFDGNPYLSAGCQDVNECTTSSTIHRHNCSDPKTCRNKVGGFYCKCQSGYRLDTTTMSCKRKEVVSGICIGIASLLLIIIVASLCWFMKRKKKNNASDGNPSDSTTLGMFHEKVSYEELHSATSRFSSTNLIGSGNFGNVFKGLLGPENKLVAVKVLNLLKHGATKSFMAECETFKGIRHRNLVKLITVCSSLDSEGNDFRALVYEFMPKGSLDMWLQLEDLERVNDHSRSLTPAEKLNIAIDVASALEYLHVHCHDPVAHCDIKPSNILLDDDLTAHVSDFGLAQLLYKYDRESFLNQFSSAGVRGTIGYAAPEYGMGGQPSIQGDVYSFGILLLEMFSGKKPTDESFAGDYNLHSYTKSILSGCTSSGGSNAIDEGLRLVLQVGIKCSEEYPRDRMRTDEAVRELISIRSKFFSSKTTITESPRDAPQSSPQEWMLNTDMHTM
modifications: left off: large carriers

Tests used:
[1] = tested on: agroinfiltrated Arabidopsis thaliana Col-0 leaves; test: Receptor internalization: decrease of GFP fluorescence by confocal microscopy in agroinfiltrated Arabidopsis Col-0 leaves; assay type: cell-based; conditions: for fluorescence variation upon treatment with elfl8: 10 μM elfl8, 30 min, EFR up to 1 mM elicitor (data not shown); for decrease of plasma membrane-associated fluorescence signal: explants at 2 dpi; for fluorescence variation upon treatment with OGs: up to 30 min, no EDTA; for decrease of fluorescence from the cell membrane: OGs 100 μg/ml 30 min pre-stimulation, then 5 mM EDTA
Procedure: PCR templates are shown in bold. Primers listed in Table 1 are shown in capital letters. Stable transgenic lines were generated using the standard A. tumefaciens-mediated gene transfer procedure of inflorescence infiltration (Bent et al., 2006). Independent transformed plant pools were kept separate for the selection of independent transgenic lines based on their phosphinotrycin resistance and leaves GFP fluorescence. Tobacco and Arabidopsis transient transgenic lines were prepared by infiltrating with Agrobacterium tumefaciens carrying the individual constructs, as described by Reca (2008).
The GFP-dependent fluorescence was monitored from 2 to 4 days post infection in cells of the lower epidermis. Pieces of leaf were randomly cut from the infected area and mounted in water or supplemented with elicitors for microscopic observations. Flg22 and elfl8 were used at 10 μM while oligosaccharides were used at 100 μg/mL. Materials were analyzed using a Leica DM IRE epifluorescence microscope equipped with a digital cooled camera (DFC350FX R2; Leica). GFP fluorescence was excited with a 488-nm laser line, and emitted fluorescence was collected at 543-nm. The Leica Confocal Software and Adobe Photoshop 5.0 were used for post-acquisition image processing. All samples were imaged with the 40× or 100× oil objectives. Pictures were taken in Kahlman frame giving an average of 16 scans for the dynamics of internalization and 4 scans for the cellular localizations. […]
The dynamics of fluorescence localization upon treatment with elicitors was then studied. Whereas endocytosis of surface receptors upon ligand binding often occurs in animals (Warren and Landgraf 2006), this mechanism in plants has emerged only recently (Geldner & Robatzek 2008) and, so far, FLS2 is the only receptor involved in plant immunity shown to undergo endocytosis upon the specific stimulation with flg22 (Robatzek et al., 2006). The authors tested the effect of flg22 and elf 18, i.e. the peptides specifically recognized by FLS2 and EFR respectively, and oligogalacturonides with a degree of polymerization between 10 and 16 (OGs), which act as general elicitors of defense responses in several plants. Explants from agroinfiltrated Arabidopsis leaves at 2 dpi were treated with elicitors and then subjected to confocal microscopy analysis. […] Instead, when eJMC-expressing explants were stimulated with flg22, the fluorescent signal decreased by 25% and 40% after 20 min and 30 min, respectively (FIG. 3B).
The first chimeric receptor, indicated as WEG, comprised the WAK1 ectodomain fused to the TM-iJM-kinase portion of EFR and was designed to test the ability of the WAK1 ectodomain to perceive OGs and transmit the signal inside the cell. […] Both WEG and EWAK as well as WAK1 were fused to GFP and used in agroinfiltration experiments (FIG. 5A). […] Western-blot analysis using GFP-specific antibodies on proteins from IWF and microsomal fractions prepared from infiltrated leaves confirmed the plasma membrane localization of both fluorescent chimeras (FIG. 5D). The effect of OGs on the internalization of WEG was followed in agroinfiltrated Arabidopsis Col-0 leaves. […] This might be due to the inability of WEG to uncouple its ectodomain from pectins, since it is known that WAK1 strongly binds to pectin and only denaturing treatments allow its separation from cell wall (He et al., 1996). On the other hand, affinity studies have shown that WAK1 interact with cell wall pectins that are in a Ca^2+-induced conformation (i.e. the structures called “egg boxes”) and that the interaction is disrupted by adding a chelating agent such as EDTA (Decreux et al., 2005; Cabrera et al., 2008). The authors therefore tested whether OG-induced internalization of WEG occurred in the presence of 5 mM EDTA. WEG-expressing agroinfiltrated leaves were syringe-infiltrated with OGs and after 30 min the tissues were mounted in the presence of EDTA for confocal microscopy analysis. […]

[2] = tested on: Agrobacterium tumefaciens GV3101; test: Growth of Agrobacterium in N. tabacum tissues transiently expressing receptor proteins; assay type: in vivo; conditions: 24 h after inoculation, tobacco tissues expressing the receptor
Procedure: F) Growth of Agrobacterium in N. tabacum tissues transiently expressing receptor proteins. Tobacco leaves were infiltrated with Agrobacterium expressing the indicated receptors and the number of Agrobacterium colony-forming units (c.f.u.) in the tissues was analyzed soon after infiltration (white bars) and 24 h (gray bars). EFR and eJMC were used as positive and negative controls, respectively. For each receptor, three samples were analyzed in five independent experiments. *, p<0.005.
(A) Growth of A. tumefaciens in N. tabacum tissues transiently expressing receptor proteins. Tobacco leaves were infiltrated with Agrobacterium carrying the indicated receptor constructs and the number of Agrobacterium colony-forming units (c.f.u.) in the tissues was analyzed immediately after infiltration (white bars) and after 24 h (gray bars). EFR and eJMC were used as positive and negative controls, respectively. For each receptor, three samples were analyzed in five independent experiments. Asterisks indicate statistically significant differences against control (Col-0 for WAK1 plants and Col-0 efr for WEG and EWAK plants). (B) Lesion development in Arabidopsis wild type (Col-0) and mutant Col-0 efr plants and in transgenic plants expressing WAK1, WEG and EWAK plants inoculated with B. cinerea at 48 h post-inoculation. Values are means±s.e.m. of at least 16 lesions. The same experiment was performed in a second independent transgenic line expressing WAK1 with similar results. Asterisks indicate statistically significant differences against control (Col-0 for WAK1 plants and Col-0 efr for WEG and EWAK plants).
Agrobacterium tumefaciens GV3101 strain infections was performed as described in Katagiri et al., (2002) and using a concentration of Agrobacterium corresponding at an OD600 of 1.0 in 10 mM MgCl2 and 600 μM acetosyringone. After 24 h of infiltration, serial dilution of Agrobacterium colonies were deposited on LB agar supplemented with gentamycin and rifampicin and grown for 2-3 days at 28° C. in the dark. At least 5 independent plants and 3 different leaves by plant, were used per experiment. Pectobacterium carotovorum subsp. carotovorum infections Pectobacterium carotovorum subsp. carotovorum (formely Erwinia carotovora; Gardan et al., 2003) (strain DMSZ 30169) was obtained from DSMZ GmbH (Germany). A liquid colture using 10 ml LB medium was prepared. After 16 h of growth at 28° C. on rotary shaker at 250 rpm, bacterial cells were harvested by centrifugation and the pellet was resuspended in 50 mM potassium phosphate buffer pH 7.0 corresponding to 5×10^7 CFU/ml.

[3] = 10 μM flg22, after 20 min of stimulation
[4] = 10 μM flg22, after 30 min of stimulation

Molecule	fluorescence variation upon treatment with elfl8 [1]	decrease of plasma membrane-associated fluorescence signal [1, 3] [%]	decrease of plasma membrane-associated fluorescence signal [1, 4] [%]	fluorescence variation upon treatment with OGs ([1]; 100 μg/ml OGs)	effect on the number of living Agrobacterium cells [2]	decrease of fluorescence in the presence of EDTA upon stimulation with OGs ([1]; 100 μg/ml OGs, 5 mM EDTA)	decrease in the number of living Agrobacterium cells ([2]; p<0.005) [%]	decrease of fluorescence in the presence of EDTA upon stimulation with flg22 ([1]; 10 μM flg22, 5 mM EDTA)	internalization in the presence of EDTA upon stimulation with oligomannuronides (OMs) ([1]; 100 μg/mL OMs, EDTA)	internalization in the presence of EDTA upon stimulation with 3-6 OGs ([1]; 100 μg/ml 3-6 OGs, EDTA)	decrease of fluorescence from the cell membrane ([1]; after 20 min) [%]	decrease of fluorescence from the cell membrane ([1]; after 30 min) [%]
eJMC: chimera (Arg806FLS2-Val650EFR): LRR and eJM domains of FLS2 fused upstream of TM, iJM and kinase domains of EFR, GFP-fused	did not induce any significant fluorescence variation	25	40	did not induce any significant fluorescence variation	no significant effect; also recorded: No significant change	–	–	–	–	–	–	–
FLS2 [reference compound]	–	15	30	–	–	No decrease of fluorescence	–	–	–	–	–	–
B1	no significant decrease of fluorescence	–	–	–	–	–	30	–	–	–	–	–
B2	–	–	–	No decrease of the plasma membrane-associated fluorescence	no significant effect; also recorded: No significant change	–	–	No decrease of fluorescence	did not occur	did not occur	15	25
